B1: TSN (parent)
chain: AFVVYLETETLVTREAVTEILGIE

Variants of: B1
Experiment: protein stability index of a GFP-peptide fusion (GPS, HEK-293T) (PSI 1-6); higher = more stable
Conditions: c terminus: a fixed tail appended
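Note: lentivirally expressed fusions sorted by FACS into six bins by GFP to DsRed ratio, PSI derived from sequencing read proportions per bin multiplied by bin number.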

Going from AFVVYLEGETLVTREAVTEILGIE [T8G] to AFVVYLEHETLVTREAVTEILGIE [T8H], the protein stability index rises from 2.1 to 3.17.

Compared with AFVVYLEIETLVTREAVTEILGIE [T8I], AFVVYLEKETLVTREAVTEILGIE [T8K] is higher in protein stability index: 2.34 for the first, 2.53 for the second.

Going from AFVVYLENETLVTREAVTEILGIE [T8N] to AFVVYLEQETLVTREAVTEILGIE [T8Q], the protein stability index falls from 3.62 to 2.06.

Compared with AFVVYLERETLVTREAVTEILGIE [T8R], AFVVYLESETLVTREAVTEILGIE [T8S] is lower in protein stability index: 4.36 for the first, 2.93 for the second.

First: AFVVYLEVETLVTREAVTEILGIE [T8V]
Second: AFVVYLEYETLVTREAVTEILGIE [T8Y]
The protein stability index of the first is higher: 2.41 for the first, 1.7 for the second.

Going from AFVVYLETATLVTREAVTEILGIE [E9A] to AFVVYLETCTLVTREAVTEILGIE [E9C], the protein stability index falls from 2.65 to 2.38.

First: AFVVYLETDTLVTREAVTEILGIE [E9D]
Second: AFVVYLETGTLVTREAVTEILGIE [E9G]
The protein stability index of the first is lower: 3.4 for the first, 3.65 for the second.

Compared with AFVVYLETITLVTREAVTEILGIE [E9I], AFVVYLETLTLVTREAVTEILGIE [E9L] is lower in protein stability index: 2.44 for the first, 1.46 for the second.

First: AFVVYLETMTLVTREAVTEILGIE [E9M]
Second: AFVVYLETNTLVTREAVTEILGIE [E9N]
The protein stability index of the first is lower: 2.42 for the first, 3.46 for the second.

Compared with AFVVYLETRTLVTREAVTEILGIE [E9R], AFVVYLETSTLVTREAVTEILGIE [E9S] is higher in protein stability index: 1.65 for the first, 2.9 for the second.

Going from AFVVYLETWTLVTREAVTEILGIE [E9W] to AFVVYLETEALVTREAVTEILGIE [T10A], the protein stability index falls from 3.68 to 1.65.

Going from AFVVYLETECLVTREAVTEILGIE [T10C] to AFVVYLETEDLVTREAVTEILGIE [T10D], the protein stability index falls from 2.82 to 2.79.

Going from AFVVYLETEELVTREAVTEILGIE [T10E] to AFVVYLETEFLVTREAVTEILGIE [T10F], the protein stability index rises from 1.39 to 3.32.

Going from AFVVYLETEHLVTREAVTEILGIE [T10H] to AFVVYLETEKLVTREAVTEILGIE [T10K], the protein stability index rises from 2.83 to 3.37.

Compared with AFVVYLETELLVTREAVTEILGIE [T10L], AFVVYLETEMLVTREAVTEILGIE [T10M] is lower in protein stability index: 2.29 for the first, 1.36 for the second.

First: AFVVYLETEPLVTREAVTEILGIE [T10P]
Second: AFVVYLETEQLVTREAVTEILGIE [T10Q]
The protein stability index of the first is higher: 2.45 for the first, 1.68 for the second.

Compared with AFVVYLETERLVTREAVTEILGIE [T10R], AFVVYLETESLVTREAVTEILGIE [T10S] is higher in protein stability index: 2.22 for the first, 2.76 for the second.

Compared with AFVVYLETEVLVTREAVTEILGIE [T10V], AFVVYLETEYLVTREAVTEILGIE [T10Y] is lower in protein stability index: 2.5 for the first, 2.36 for the second.

Compared with AFVVYLETETAVTREAVTEILGIE [L11A], AFVVYLETETDVTREAVTEILGIE [L11D] is lower in protein stability index: 2.69 for the first, 2.34 for the second.

Going from AFVVYLETETEVTREAVTEILGIE [L11E] to AFVVYLETETGVTREAVTEILGIE [L11G], the protein stability index rises from 1.73 to 2.58.

First: AFVVYLETETHVTREAVTEILGIE [L11H]
Second: AFVVYLETETMVTREAVTEILGIE [L11M]
The protein stability index of the first is higher: 3.08 for the first, 3.03 for the second.

First: AFVVYLETETNVTREAVTEILGIE [L11N]
Second: AFVVYLETETPVTREAVTEILGIE [L11P]
The protein stability index of the first is higher: 2.14 for the first, 1.97 for the second.

First: AFVVYLETETQVTREAVTEILGIE [L11Q]
Second: AFVVYLETETRVTREAVTEILGIE [L11R]
The protein stability index of the first is higher: 3.4 for the first, 2.65 for the second.

Going from AFVVYLETETSVTREAVTEILGIE [L11S] to AFVVYLETETTVTREAVTEILGIE [L11T], the protein stability index falls from 2.48 to 1.64.

First: AFVVYLETETVVTREAVTEILGIE [L11V]
Second: AFVVYLETETWVTREAVTEILGIE [L11W]
The protein stability index of the first is higher: 2.74 for the first, 2.15 for the second.

Going from AFVVYLETETLATREAVTEILGIE [V12A] to AFVVYLETETLDTREAVTEILGIE [V12D], the protein stability index rises from 3.16 to 4.41.

Compared with AFVVYLETETLETREAVTEILGIE [V12E], AFVVYLETETLGTREAVTEILGIE [V12G] is higher in protein stability index: 2.35 for the first, 2.73 for the second.

Compared with AFVVYLETETLHTREAVTEILGIE [V12H], AFVVYLETETLITREAVTEILGIE [V12I] is higher in protein stability index: 2.21 for the first, 3.19 for the second.

First: AFVVYLETETLLTREAVTEILGIE [V12L]
Second: AFVVYLETETLMTREAVTEILGIE [V12M]
The protein stability index of the first is lower: 2.56 for the first, 3.5 for the second.

First: AFVVYLETETLNTREAVTEILGIE [V12N]
Second: AFVVYLETETLPTREAVTEILGIE [V12P]
The protein stability index of the first is higher: 2.9 for the first, 1.74 for the second.

Compared with AFVVYLETETLQTREAVTEILGIE [V12Q], AFVVYLETETLRTREAVTEILGIE [V12R] is higher in protein stability index: 1.94 for the first, 2.51 for the second.

First: AFVVYLETETLTTREAVTEILGIE [V12T]
Second: AFVVYLETETLYTREAVTEILGIE [V12Y]
The protein stability index of the first is higher: 4.69 for the first, 2.53 for the second.

Compared with AFVVYLETETLVAREAVTEILGIE [T13A], AFVVYLETETLVCREAVTEILGIE [T13C] is higher in protein stability index: 2.44 for the first, 2.48 for the second.

Compared with AFVVYLETETLVDREAVTEILGIE [T13D], AFVVYLETETLVEREAVTEILGIE [T13E] is lower in protein stability index: 1.81 for the first, 1.06 for the second.

Going from AFVVYLETETLVFREAVTEILGIE [T13F] to AFVVYLETETLVGREAVTEILGIE [T13G], the protein stability index falls from 3.68 to 2.1.

Going from AFVVYLETETLVHREAVTEILGIE [T13H] to AFVVYLETETLVIREAVTEILGIE [T13I], the protein stability index falls from 2.05 to 1.31.

Going from AFVVYLETETLVKREAVTEILGIE [T13K] to AFVVYLETETLVMREAVTEILGIE [T13M], the protein stability index rises from 1.63 to 3.48.

First: AFVVYLETETLVNREAVTEILGIE [T13N]
Second: AFVVYLETETLVRREAVTEILGIE [T13R]
The protein stability index of the first is lower: 1.72 for the first, 3.01 for the second.

Going from AFVVYLETETLVVREAVTEILGIE [T13V] to AFVVYLETETLVWREAVTEILGIE [T13W], the protein stability index falls from 2.31 to 1.62.

Going from AFVVYLETETLVYREAVTEILGIE [T13Y] to AFVVYLETETLVTAEAVTEILGIE [R14A], the protein stability index rises from 3.33 to 3.41.

First: AFVVYLETETLVTCEAVTEILGIE [R14C]
Second: AFVVYLETETLVTDEAVTEILGIE [R14D]
The protein stability index of the first is higher: 3.25 for the first, 2.33 for the second.

First: AFVVYLETETLVTEEAVTEILGIE [R14E]
Second: AFVVYLETETLVTFEAVTEILGIE [R14F]
The protein stability index of the first is lower: 1.43 for the first, 2.36 for the second.

Going from AFVVYLETETLVTHEAVTEILGIE [R14H] to AFVVYLETETLVTKEAVTEILGIE [R14K], the protein stability index rises from 3.6 to 4.19.

First: AFVVYLETETLVTMEAVTEILGIE [R14M]
Second: AFVVYLETETLVTNEAVTEILGIE [R14N]
The protein stability index of the first is lower: 4.2 for the first, 4.51 for the second.

Compared with AFVVYLETETLVTPEAVTEILGIE [R14P], AFVVYLETETLVTSEAVTEILGIE [R14S] is lower in protein stability index: 2.84 for the first, 1.54 for the second.

Going from AFVVYLETETLVTTEAVTEILGIE [R14T] to AFVVYLETETLVTYEAVTEILGIE [R14Y], the protein stability index falls from 2.48 to 2.01.

Going from AFVVYLETETLVTRCAVTEILGIE [E15C] to AFVVYLETETLVTRDAVTEILGIE [E15D], the protein stability index rises from 1.97 to 3.69.

Reference: the supplement of paper PMC10567573
